Target: synthetic peptide …[pT]ISDSAPSR (human)
Test: bead array incubated with the synthetic peptide in digested BSA; bound peptide by MS, peptide left in the sample by dot blot

Chain of synthetic peptide …[pT]ISDSAPSR (human) (peptide, as listed by the source): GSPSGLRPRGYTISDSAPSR

Rabbit monoclonal antibody recognizing phosphorylated Thr1462 in human Tuberin (TSC2), Cell Signaling Technology catalog number 3617 (5B12)
binding capacity of a bead array of 5 identical reactive sites, each with 5% of the #3617 antibody: < 15 % of 1 pmol
